The values that follow come from patent EP2336188A1 (Sanofi-Aventis, dated 2011).

Values joined by “and” are separate entries in the source; they are usually repeats but may differ in a detail not shown here. Identical values can stand only once.

B1: humanized anti-GPVI Fab VL1 with VH2 (Fab, V domains shown)
VH: QVQLQESGPGLVAPSQSLSITCTVSGFSLTGYGVNWVRQPPSRGLEWLGMIWGDGSTDYQSTLKSRLSISKDNSKSQVFLKMNSLTTDDTARYYCARDLPMDYWGQGTSVTVSS
VL: DIQMTQSPSSLSASVGGRVTITCKASQDINKYIAWYQHKPGKGPSLLIHYTSTLQPGVPSRFSGSGSGRDYSFSISNLQPEDIATYYCLQYANLLTFGGGTKLEIKR
B2: humanized anti-GPVI Fab VL1 with VH1 (Fab, V domains shown)
VH: QVQLQESGPGLVAPSQSLSITCTVSGFSLTGYGVNWVRQPPSRGLEWLGMIWGDGSTDYQSTLKSRLSISKDTSKSQVFLKMNSLTTDDTARYYCARDLPMDYWGQGTSVTVSS
VL: DIQMTQSPSSLSASVGGRVTITCKASQDINKYIAWYQHKPGKGPSLLIHYTSTLQPGVPSRFSGSGSGRDYSFSISNLQPEDIATYYCLQYANLLTFGGGTKLEIKR
B3: humanized anti-GPVI Fab VL3 with VH4 (Fab, V domains shown)
VH: QVQLQESGPGLVAPSQSLSITCTVSGFSLTYYGVNWVRQPPSRGLEWLGMIWGDGSTDYQSTLKSRLSISKDNSKSQVFLKMNSLTTDDTARYYCARDLPMDYWGQGTSVTVSS
VL: DIQMTQSPSSLSASVGGRVTITCKASQDINKYIAWYQHKPGKGPSLLIHYTSTLQPGVPSRFSGSGSGRDYSFSISNLQPEDIATYYCLQYALLLTFGGGTKLEIKR
B4: humanized anti-GPVI Fab VL1 with VH5 (Fab, V domains shown)
VH: QVQLQESGPGLVAPSQSLSITCTVSGFSLTGYGVNWVRQPPSRGLEWLGMIWGDGSTDYQSTLKSRLSISKDNSKSQVFLKMNSLTTDDTARYYCARDLPMDEWGQGTSVTVSS
VL: DIQMTQSPSSLSASVGGRVTITCKASQDINKYIAWYQHKPGKGPSLLIHYTSTLQPGVPSRFSGSGSGRDYSFSISNLQPEDIATYYCLQYANLLTFGGGTKLEIKR
B5: humanized anti-GPVI Fab VL2 with VH2 (Fab, V domains shown)
VH: QVQLQESGPGLVAPSQSLSITCTVSGFSLTGYGVNWVRQPPSRGLEWLGMIWGDGSTDYQSTLKSRLSISKDNSKSQVFLKMNSLTTDDTARYYCARDLPMDYWGQGTSVTVSS
VL: DIQMTQSPSSLSASVGGRVTITCKASQDINKYIAWYQHKPGKGPSLLIHYTSTLQPGVPSRFSGSGSGRDYSFSISNLQPEDIATYYCLQYAHLLTFGGGTKLEIKR
B6: humanized anti-GPVI Fab VL1 with VH4 (Fab, V domains shown)
VH: QVQLQESGPGLVAPSQSLSITCTVSGFSLTYYGVNWVRQPPSRGLEWLGMIWGDGSTDYQSTLKSRLSISKDNSKSQVFLKMNSLTTDDTARYYCARDLPMDYWGQGTSVTVSS
VL: DIQMTQSPSSLSASVGGRVTITCKASQDINKYIAWYQHKPGKGPSLLIHYTSTLQPGVPSRFSGSGSGRDYSFSISNLQPEDIATYYCLQYANLLTFGGGTKLEIKR
B7: humanized anti-GPVI Fab VL3 with VH2 (Fab, V domains shown)
VH: QVQLQESGPGLVAPSQSLSITCTVSGFSLTGYGVNWVRQPPSRGLEWLGMIWGDGSTDYQSTLKSRLSISKDNSKSQVFLKMNSLTTDDTARYYCARDLPMDYWGQGTSVTVSS
VL: DIQMTQSPSSLSASVGGRVTITCKASQDINKYIAWYQHKPGKGPSLLIHYTSTLQPGVPSRFSGSGSGRDYSFSISNLQPEDIATYYCLQYALLLTFGGGTKLEIKR
B8: humanized anti-GPVI Fab VL1 with VH3 (Fab, V domains shown)
VH: EVQLLESGPGLVAPSGSLSITCTVSGFSLTGYGVNWVRQPPGKGLEWLGMIWGDGSTDYQSTLKSRLSISKDNSKSQVFLKMNSLRTDDTARYYCARDLPMDYWGLGTSVTVSS
VL: DIQMTQSPSSLSASVGGRVTITCKASQDINKYIAWYQHKPGKGPSLLIHYTSTLQPGVPSRFSGSGSGRDYSFSISNLQPEDIATYYCLQYANLLTFGGGTKLEIKR

The target of this test is T1, human GPVI on platelets (human, UniProt Q9HCN6 21-339).
T1 sequence (looked up): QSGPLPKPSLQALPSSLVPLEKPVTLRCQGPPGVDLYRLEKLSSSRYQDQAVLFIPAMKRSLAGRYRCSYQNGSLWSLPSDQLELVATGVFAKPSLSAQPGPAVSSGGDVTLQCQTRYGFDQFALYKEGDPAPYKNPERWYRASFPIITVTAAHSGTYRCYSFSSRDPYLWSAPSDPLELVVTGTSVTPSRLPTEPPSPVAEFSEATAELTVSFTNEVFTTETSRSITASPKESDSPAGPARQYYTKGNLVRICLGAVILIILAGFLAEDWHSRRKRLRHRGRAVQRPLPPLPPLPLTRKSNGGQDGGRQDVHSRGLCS
Put plainly: cell-based or functional assay.
In the case of B1, the “IC50 for inhibition of collagen induced platelet aggregation (human platelet rich plasma)” value (shortened to “IC50 for inhibition”) was 2.3 µg/mL and 2 µg/mL and 1.1 µg/mL. With B2 the figure was 1.5 µg/mL and 2.3 µg/mL. With B3 the figure was 1 µg/mL and 2.3 µg/mL and 2 µg/mL. For B4, the “IC50 for inhibition” value was 1.9 µg/mL and 2.3 µg/mL and 1.2 µg/mL. With B5 the figure was 1.4 µg/mL and 2.4 µg/mL and 2.3 µg/mL.

As to B6, the “IC50 for inhibition” value is 1.6 µg/mL and 1.8 µg/mL and 1.2 µg/mL.

For the molecule B7, the “IC50 for inhibition” value is 1.9 µg/mL and 0.9 µg/mL and 2.1 µg/mL. In the case of B8, the “IC50 for inhibition” value is 1.5 µg/mL and 1.7 µg/mL.
